Residue numbers refer to the chain shown, from its start.
Tests used:
human GPC3 on cells [1] = target: T1, human GPC3 on cells (human, UniProt P51654 25-554); assay: flow cytometry, CHO-S cells transfected with human GPC3
T1 construct: whole, on cells; One molecule is used for transfected CHO-S cells and for tumour cell lines that carry GPC3; the cell line is named under assay or readout; also called CHO-S Human GPC3; GPC3 on HepG2, JHH-7, JHH-5, NCI-H446, FU-97, Huh-6, Huh-7, MKN-45 cells
Protocol: (§1) Briefly, CHO—S cells were transiently transfected for −24 hours with a pTT5-based expression plasmid encoding human GPC3 or cynomolgus monkey GPC3, 0.5 μg DNA per 1 million cells, using the Neon™ Transfection System (Thermo Fisher Scientific Corp., Waltham, MA), to transiently express human or cynomolgus monkey GPC3. Following transfection, cells were seeded at 50,000 cells/well in V-bottom 96-well plates and treated with antibody for 24 hours at 4° C. to prevent internalization. […] Following incubation and washing, fluorescence was detected by flow cytometry on a BD LSRFortessa™ Cell Analyzer (BD Biosciences, Franklin Lake, NJ) with 1,000 minimum events collected per well. AF647/APC-A GeoMean (fluorescence signal geometric mean, proportional to anti-Human AF647 binding) in live cell population was plotted against antibody concentration using GraphPad Prism Version 9 (GraphPad Software, San Diego, CA). The Bmax and Kd values were derived from the “Specific binding with Hill slope” nonlinear regression curve fit in GraphPad Prism Version 9.

human GPC3 on cells [2] = target: T1, human GPC3 on cells; assay: flow cytometry, JHH-7 cells
Protocol: (§2) Cell lines investigated included GPC3-hi HepG2 and JHH-7 cells, GPC3-mid JHH-5 cells, as well as GPC3-negative SNU-601 cells.
(§3) Briefly, cells were seeded at 50,000 cells/well in V-bottom 96-well plates and treated with antibody for 24 hours at 4° C. to prevent internalization. […] Following incubation and washing, fluorescence was detected by flow cytometry on a BD LSRFortessa™ Cell Analyzer (BD Biosciences, Franklin Lake, NJ) with 1,000 minimum events collected per well. AF647/APC-A GeoMean (fluorescence signal geometric mean, proportional to anti-Human AF647 binding) in live cell population was plotted against antibody concentration using GraphPad Prism Version 9 (GraphPad Software, San Diego, CA). The Bmax, Curve Hill Slope (h) and Kd values were derived from the “Specific binding with Hill slope” nonlinear regression curve fit in GraphPad Prism Version 9.

human GPC3 on cells [3] = target: T1, human GPC3 on cells; assay: flow cytometry, HepG2 cells
Protocol: as §2, §3

[4] = target: T2, cynomolgus monkey GPC3 on CHO-S cells (cynomolgus monkey, UniProt A0A2K5VK50 24-553); assay: flow cytometry, CHO-S cells transfected with cynomolgus monkey GPC3
T2 construct: whole, on cells; also called CHO-S Cyno GPC3
Protocol: as §1

human GPC3 on cells [5] = target: T1, human GPC3 on cells; assay: flow cytometry, JHH-5 cells
Protocol: as §2, §3

[6] = target: T2, cynomolgus monkey GPC3 on CHO-S cells; assay: flow cytometry, CHO-S cells transfected with cynomolgus monkey GPC3; apparent Kd
Protocol: as §1

human GPC3 on cells [7] = target: T1, human GPC3 on cells; assay: flow cytometry, CHO-S cells transfected with human GPC3; apparent Kd
Protocol: as §1

FcgR1A = target: T3, FcgR1A (human, UniProt P12314 16-374); assay: Membrane Proteome Array: high-throughput flow cytometry on unfixed HEK293T cells, each well expressing one human membrane protein; antibody at 1.25 ug/mL; the text ascribes this to the Fc portion
T3 construct: whole, on cells
Protocol: Briefly, the study consisted of three phases: phase (1) determination of assay screening conditions, phase (2) membrane proteome array (library) screen and phase (3) protein target validation. […] In phase (3), each protein target hit from the screen stage (potential off-target interactions) was assessed in titration experiment using flow cytometry.

human GPC3 on cells [8] = target: T4, human GPC3 on cells (human, UniProt P51654 25-554); assay: flow cytometry, JHH-7 cells
T4 construct: GPI-anchored protein on transfected CHO-S cells, on human tumor cell lines or on HEK293T cells; the cell is named under assay; also called human GPC3 on CHO-S transfected cells; HuGPC3-CHO

human GPC3 on cells [9] = target: T4, human GPC3 on cells; assay: flow cytometry, JHH-5 cells

T3 sequence (P12314 16-374): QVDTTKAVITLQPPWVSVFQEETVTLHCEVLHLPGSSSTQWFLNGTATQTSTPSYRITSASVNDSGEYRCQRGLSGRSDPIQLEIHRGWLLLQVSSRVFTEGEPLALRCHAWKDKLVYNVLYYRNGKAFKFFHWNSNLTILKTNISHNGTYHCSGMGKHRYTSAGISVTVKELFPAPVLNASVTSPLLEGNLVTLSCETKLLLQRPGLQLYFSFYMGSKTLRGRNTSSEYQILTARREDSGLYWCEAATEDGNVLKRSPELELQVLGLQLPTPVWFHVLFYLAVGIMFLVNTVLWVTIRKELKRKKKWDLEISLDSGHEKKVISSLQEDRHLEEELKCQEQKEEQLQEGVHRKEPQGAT

B1: v38592-MC-GGFG-AM-Compound 139, DAR 8 (antibody, human IgG1, kappa)
heavy: not shown
light: EIVLTQSPATLSLSPGERATISCRSSQSLRHSNGNTYLQWYQQKPGQAPRLLIYKVSNRFSGVPARFSGSGSGTDFTLTISSLEPEDFAVYFCYQSKHVPYTFGGGTKVEIKRTVAAPSVFIFPPSDEQLKSGTASVVCLLNNFYPREAKVQWKVDNALQSGNSQESVTEQDSKDSTYSLSSTLTLSKADYEKHKVYACEVTHQGLSSPVTKSFNRGEC
modifications: MC-GGFG-AM-Compound 139 drug-linker on cysteines (positions not stated); DAR 8 per antibody
notes: Antibody-drug conjugate of v38592
Question: How did the Bmax (human GPC3 on cells [1]) turn out when B1 was run?
Answer: The Bmax was 247.

Question: What about the Bmax (human GPC3 on cells [2]) of the same binder?
Answer: Its Bmax is 4550.

Question: And the Kd (human GPC3 on cells [2])?
Answer: The Kd was 0.7 nM.

Question: What about the Bmax (human GPC3 on cells [3]) of the same binder?
Answer: The Bmax was 3370.

Question: What about the Kd (human GPC3 on cells [3]) of the same binder?
Answer: Its Kd is 7.27 nM.

Question: And the Bmax [4]?
Answer: The Bmax was 511.

Question: What about the Bmax (human GPC3 on cells [5]) of the same binder?
Answer: Its Bmax is 5710.

Question: What about the Kd (human GPC3 on cells [5]) of the same binder?
Answer: The Kd was 0.51 nM.

Question: And the Kd [6]?
Answer: Its Kd is 0.7 nM.

Question: And the Kd (human GPC3 on cells [7])?
Answer: The Kd was 0.33 nM.

B2: v37574 (M3-H18L6) (antibody, human IgG1, kappa)
heavy: not shown
light: B1 light
notes: Humanized full-size IgG1/kappa antibody, heavy chains without C-terminal lysine
Question: What does the source list for B2?
Answer: Bmax (human GPC3 on cells [1]): 242; Bmax (human GPC3 on cells [2]): 4980; Kd (human GPC3 on cells [2]): 3.31 nM; Bmax (human GPC3 on cells [3]): 4570; Bmax [4]: 474; Bmax (human GPC3 on cells [5]): 4350; Kd (human GPC3 on cells [5]): 0.2 nM; Kd [6]: 0.39 nM; Kd (human GPC3 on cells [7]): 0.2 nM

B3: v38592 (M3-H18L6 with HC C-terminal lysine) (antibody, human IgG1, kappa)
heavy: not shown
light: B1 light
notes: identical to v37574 but the cDNA of the heavy chains encodes a C-terminal lysine; also called M3-H18L6 (WT) mAb; wild-type M3-H18L6
Question: Does B3 bind (FcgR1A)?
Answer: Result: binds

B4: v38592-MC-GGFG-AM-Compound 139, DAR 4 (antibody, human IgG1, kappa)
heavy: not shown
light: B1 light
modifications: MC-GGFG-AM-Compound 139 drug-linker on cysteines (positions not stated); DAR 4 per antibody
notes: as for B1
Question: What does the source list for B4?
Answer: Bmax (human GPC3 on cells [1]): 259; Bmax (human GPC3 on cells [2]): 4730; Kd (human GPC3 on cells [2]): 0.88 nM; Bmax (human GPC3 on cells [3]): 4050; Kd (human GPC3 on cells [3]): 8.69 nM; Bmax [4]: 506; Bmax (human GPC3 on cells [5]): 5500; Kd (human GPC3 on cells [5]): 0.43 nM; Kd [6]: 0.55 nM; Kd (human GPC3 on cells [7]): 0.29 nM

B5: v40215 (H18L6_LC_N33V mAb) (antibody, human IgG1, kappa, V domains shown)
VH: QVQLVQSGAEVKKPGSSVKVSCKASGYTFTDYEMHWVKQAPGHGLEWIGAIDPETGDTAYNQKFKGKATLTADTSTSTAYMELSSLRSEDTAVYYCTRYFSFAYWGQGTLVTVSS
VL: EIVLTQSPATLSLSPGERATISCRSSQSLRHSVGNTYLQWYQQKPGQAPRLLIYKVSNRFSGVPARFSGSGSGTDFTLTISSLEPEDFAVYFCYQSKHVPYTFGGGTKVEIKR
notes: as for v40203
Question: How did the “fold increase in Kd from wild-type” value (human GPC3 on cells [8]) turn out when B5 was run?
Answer: The value was greater than 2 fold.

B6: v40213 (H18L6_LC_N33E mAb) (antibody, human IgG1, kappa, V domains shown)
VH: B5 VH
VL: B5 VL with V33E
notes: as for v40203
Question: B6 was tested. Which “fold increase in Kd from wild-type” value (human GPC3 on cells [9]) did it give?
Answer: Its value is roughly 29 fold.

From patent US20250295799A1 (Zymeworks, published 2025)
